Measurements as given in the DeepSol protein solubility set.

Experiment: soluble on expression in E. coli; label from the status in PepcDB or PDB records

Sequence | soluble on expression in E. coli
MGSDKIHHHHHHMIYYGTMFDHKVRFSIVRMREVVEEARNRHALSYLATVVLGRALIGAALVTPWLAEKERWTLDIEGNGPIRRVVAQSTSEFTVRGYVANPKVELPLNEKGKFDVAGAIGQGVLRVVRDLGLKTPFVSQVPLVSGEIAEDLAYYFAVSEQIPSAFSIGVLVDSDGVKIAGGFAVQIIDRTLEQEKVEMIEKNIKNLPSISKLFQEAEPLDVLERIFGEKVGFVETAEIKYKCDCNREKAKNALLVLDKKELEDMRKEGKGEVVCKWCNTRYVFSEEELEELLKFKVDDSGS | soluble
MGSDKIHHHHHHMIKIGAHMPISKGFDRVPQDTVNIGGNSFQIFPHNARSWSAKLPSDEAATKFKREMKKHGIDWENAFCHSGYLINLASPKDDIWQKSVELLKKEVEICRKLGIRYLNIHPGSHLGTGEEEGIDRIVRGLNEVLNNTEGVVILLENVSQKGGNIGYKLEQLKKIRDLVDQRDRVAITYDTCHGFDSGYDITKKEGVEALLNEIESLFGLERLKMIHLNDSKYPLGAAKDRHERIGSGFIGEEGFAVFFSFKEIQEVPWILETPGGNEEHAEDIKKVFEIIEKFGIEVD | not soluble
MYRIGELAKMAEVTPDTIRYYEKQQMMEHEVRTEGGFRLYTESDLQRLKFIRHARQLGFSLESIRELLSIRIDPEHHTCQESKGIVQERLQEVEARIAELQSMQRSLQRLNDACCGTAHSSVYCSILEALEQGASGVKSGC | not soluble
VEVLLGGDDGSLAFLPGDFSVASGEEIVFCNNAGFPHNVVFDEDEIPSGVDAAKISMSEEDLLNAPGECYKVTLTEKGTYKFYCSPHQGAGMVGKVTVN | soluble
MAKVIFDENRCKGCKLCTTVCPKKIVVMNEDKLNQKGFHPAGVVDMDKCIGCAFCATICPDCVIEVYK | not soluble
MLGGDWTDGTMTDFKWRHFQGDVILWAVRWYCRYPISYRDLEEMLAERGISVDHTTIYRWVQCYAPEMEKRLRWFWRRGFDPSWRLDETYVKVRGKWTYLYRAVDKRGDTIDFYLSPTRSAKAAKRFLGKALRGLKHWEKPATLNTDKAPSYGAAITELKREGKLDRETAHRQVKYLNNVVEADHGKLKILIKPVRGFKSIPTAYATIKGFEVMRALRKGQARPWCLQPGIRGEVRLVERAFGIGPSALTEAMGMLNHHFAAAA | not soluble
LGGAQETAETMAKESMVLLKNTDDTLPLSGDESVLLTGPGVDSNGNNTRALMQHGGWTLGWQGASAGGPFPRQNLLEAELRARVGSLTHVPTSYENTTWWAGEGDGGNQQSDENGNFDFTAEQRSRVESAGPESDVVVVVLGEGTHNEGFGDRDELVLDESQQALLDTVVESTDDSAPIIGVMLAGSPRGSPETFSQLDALLFAGQPGSDGGVAIAETLVGEYNPSGKLPFSWPENVGTTPVQYTRYDPTSTGGTDNTAIYEYGHGLSYTDF | not soluble
MSTEQPERADRLLAAAQRRGHERVEARDFGEAILAEVHCPRYLDFLKNGYAQWRALPGASQEITPHVHPPREESGYPVSIIGRAGFHIADTSSPMGPHTWEAALAASHSACTAAQLVIEGAPAAYSLSRPPGHHATRDRAGGFCFLNHTAVAAQWLRHHVARVAILDVDVHHGNGTQDIFYERDDVLHVSLHADPAYFYPFFTGYAQETGRGIGAGCNLNLPLPIGTDDEAFLAALRIACRRVLDFKPDVVVVALGLDTYEGDPLNAFRITTPGFARIGQAIAGLALPTVLVQEGGYLSDELGENLATFLDGFCQHLEHHHHHH | not soluble
MVTGLICFTGCSDDFLKDKKVYGSYDASVVYENYETAKSRVDFLYQSLLPSSTGGSNALTDITSAGIDDDFSKCTEEYGDYSIFNDPTASLTIQTVPDYFYVINSERSPWGRIRECNNVIEGVTGSATLSQTEKEQLLGQAYFFRAWRYYLLVKMYGGVPIVDHVQNPVIGDGNGENLVIPRSSTKACIDFICDDLELAASYLPARWQNEGQDYGRITAGAALALKGRTLLLYASPLFNRADDASRWKDAYDANFAAITKLNEGNFGLAYEGNGGEDNAKNWARMFATYTGGSEAVFVTLYNNVSPIASQNINRYNLWEQGIRPGNINGGGGKTPTAEIIDIFPMIDGKKPMESGVHYDPKKFFLNRDPRFYRTFAFPGVEWKFNSGNVDFSGATMSGLCPTRYTSGANYELWNYCWYTTADERNNPSRSGFAADMLGTKNRGVYVRKRSDDFDLGTSLYVFTDNSSGDQQGFRRSAAPYMEIRYAEVLLNLAESACGAGGTYHAEGVKALKAVRGRVGYTSANNYGLDAAIETDRAKLFEAILYERQVELAFEGKRAYDMRRWMLFDGGVGQGALNASWALSGFGGNTCTYLGVTPMNERGKRYRIEINVEGTGSANNDSDPIKNVERPAALTLNEKIATEADGETILDPAVSSICTFYDTYFSRKDISLDGNVLDINPYFQPRYYFFGLRQSAQQTNATLYQTIGWEDYAHGGMGTFDPLAE | not soluble
MGSDKIHHHHHHMAGIRAKQKEKTRQALINAAMNQLSAENGFSSLSLREVAREAGIAPTSFYRHFRDMDELGLTLVDECGLALRQLLRQARQRIESGGSIIRVSIETFMQFVANNTATFRLLLQERSGRSRSFRLAVVREIDHFKAELEDYLVNEQSFSRELAELQSDTIAKIVFSAGADCFDVDEEEREIITEKTILQVRLVARGAEATRRLLKRES | not soluble
MRLLVIIILVAFFLCTTAELMEKRSSMGGSAFGGIDRIPLSYLRKYYRQKTMKRDDNELLDFSPQNSQLGYRSISFWPLY | not soluble
MRARGRLLPRLLRTNIQSSRFLVSLGHTNDVMSSHLCSLCHLDHHPHPTPPSSSSSSSSLSLCAWLSCVCVCVCVYMHTTYHTGLSTYQCSILQPPPSPSLSTHTFLCVYCVLAPSSPPCIMVDTSSSAPASASPAITTSAAATTPVVILVVGMAGTGKTTLVHRMQHYAHTNGIRSYFINLDPAVTHTPYNVNIDIRDSVRYGEVMKNYRLGPNGAIMTSLNLFATKIHQVVSLLEKKEEMLDWIIVDTPGQIEVFTWSASGQLMADSFGAVFPTVLLFVADTVRCVSSPQTFVSTMLYSSGIMLKQQVPLVVVFNKTDVVSADSVIAWMRDNDALDEAVTNPHRSNRSRRAVSGEPGDGEDADWRGEGTRIGAAALGSQDALLANQGSGYAGTLAQSMSLFLHEFYEDLPYAAVSAASGAGMSELAASIERGKQQALEAKAERSAH | not soluble
MRYDVLARAGFARRGNLHLPHSIVETPVFMPVGTQGTMKGIVPEQLVSMDCRILLCNTYHLGHRPGHERVKAAGGLHKMMNWNRSILTDSGGFQMVSLSKLMTVDENGVNFESPHTGEMMALPPEKSIEIQQALGADIMMQLDHVIHVLTTGDIVKEAMHRSIRWLDRCKVAHTRDDQAMFPILQGGLNLELRKECAKEMAKRAKVGIAIGGLSGGEEKDHFWRVVAACCAALPPHLPRYVMGVGFPVDLVICSFLGADMFDCVYPTRTARFGTAMVRRGGLMQLNQKRYKEDFLPIDKKCECNTCKNYTRAYIHSIVGKETVGCHLVSVHNIKHQLDLMRDVRQAIQSNSVEQFLKQFLYDYYGPIQSENPSKQDSEKMREVPQWVRDAVDHMGYKLDF | not soluble
MKTIHIYTNGRLEEKRGDIVREFPLVLQVNGREIATLIASPHDLRFLVAGFLRNQGFVESAADFHMLAVCDEFGIANVRIRQELPERLKPVLTSGCGTGITFTLETGGREAAVAPSPAVAPEAVFRLMEELARQADNYRNHGGIHSAAVGDGEGNLLLFAEDIGRHNTLDRIAGEALLKGIDLAGRILVTSGRVSTEMASKCARLGIALVASRTSATDMAATLCHEAGICLLGYVRGGKFTVYTHSDRLLVPEQAAASLPGPVPRGRIPGVTGVILAGGQSSRMGSNKALLPYRGGRFIESIHRQLSEYFDEVIVVTNTPEQYEFLPCRKVTDIHEGMGALAGIHAGLHHSSNPAAFVVACDMPYLNGDLIRHLASMADPGGVLIPESPTGLEPLHAVYGKGCLAAIEATLLSGQRRIVSFFGRTNVNRVNVAQIAAFDPEFNSFRNINTPTDYYRLREIERGEALPAPADERAGASALEHHHHHH | not soluble
MQKAVVMDEQAIRRALTRIAHEIIERNKGIDGCVLVGIKTRGIYLARRLAERIEQIEGASVPVGELDITLYRDDLTVKTDDHEPLVKGTNVPFPVTERNVILVDDVLFTGRTVRAAMDAVMDLGRPARIQLAVLVDRGHRELPIRADFVGKNVPTSRSELIVVELSEVDGIDQVSIHEK | soluble
MFRSVVVSVRQPAVAGYFYPDDPLTLKQTVLNFLDQAPIHKPAPKAILVPHAGYVYSGAVAASAYASLRDKKDTINKIILLGPAHRLYFKGIAYDPVDKFATPLGEIDQDKELLTQIIDLPYVYSLPEAHQNEHCLEVQLPFCQMIFSKFKILPLVIGETNPQDVARLIARIWGGDDTLLIISSDLSHYLPYHIAQREDKKTCLSIDTLNGEEILHDAACGYFPLRGFLYFGRQNHVYSRLLDLRNSGDTAGDKERVVGYAAYHFYQKLKFSEHCADELKYIAKETIRLQTEENKALTINYNDYSQLLQMRVPTFITLKKNGMLRGCMGSLTTKDPLAENIIYNSIRAASADPRFPQIKPCELKELSLTISLIKPLSPLHFDSEEELKSQLQIGLDGLVLICGPYQATFLPSVWESVKTKDEFINHLKLKMGLSENFWSSEMRALRYATEIIKLEHHHHHH | not soluble
MAHHHHHHMAASSPLGMANYVTGDPLGVAGQEAGKGAGALLAAVQQCSAELSHEFGDGVALMTGEPAAATTSSHASPLSPEQRVALSAGAVTCLSVASLPGTTDTAVAVVGTTVGTVALLLIEGSRAVYKVAECSLMEWSSGAITAQDAIVDVAFSMDPAGRPEFVGAASAGCVVVVDVQLLYRPSGNSSRSTDEEVGDTATDAPAAVVHRAEWHQATELWSNSALRAKAVEALERSSAQLVRHCCSDVFACSFVEADVVRILAPQRLQAAVAIDVALVVVLSSGALHYVERVVEGGSVRLLAEHHWQRLAKGAAFTSHASAATQGADSAAENDFSADGTSVHLVTDSRAVPHVIYRYRLSPYHVQACQDGGQTASGGGGNYSMAALALPCATESVTHVCDAHLHFSEKDAACHVVLAGTQRVPVGKVGYMSVASRVGSLGHAQQQQHAGVAGCRTLAWWAVVQNAVLPRQTFDRSALERQALQHQHQQQQQQLHDGHAFPPFRTNAGSPPFTVHVQSNTMALPCGLGTCPASALTSPATSSPATAGAGVASGVSAVGPGQGSGFAAAFMLTDILVLASGHELYVGDLRDVPRSAKTLPVPRPLRSFGSVVEGITAGPYMDARAVLVATGSRVAPVSLV | not soluble
TMEIPINRTYSCFLEGPEAPKTPACQAAKQAGGTQAMYDWNGINQNPSGDNHQAVVPDGTLCGGGKAEFKGFNLAREDWRTTNIVPDANGNYEFIYKATAPHATKYFKFYVTKNGWNPTQALKWSDLELFGTVNGNPQQDAGKRYHMTLKLPQGKTGKHIIFNVWKRSDSEEAFYSCSDVNFGG | not soluble
MVMLTKCLSSKDNIMSLTCMPALFLGHGSPMNVLDDNDYTRAWRRLGEALPRPQAIVVVSAHWYTRGTGVTAMERPQTLHDFGGFPQALYDTHYPAPGSPALAQRLVELLAPVPVALDKEAWGFDHGSWGVLIKMYPNADIPMVQLSVDSTKPAAWHFEVGRKLATLRDEGVMLVASGNVVHNLRTVRWHGDNIPYPWAASFNDFVKANLTWQGPVEQHPLVNYLQHEGGALSNPTPEHFLPLLYVLGAWDGKEPITIPVDGIEMGSISMLSVQVGLEHHHHHH | not soluble
WAIFVEQSDGHYRVRLRSKSHIINEIAKRHNGGGHPLASGANSYSLEENQAIYQ | soluble
MMVVNIKMQQMKSQFIQYNDSNNKVLYQKCKPVADIQNAEIQNIITEMHEKMQGNGIGLAANQIGYPYQIFMIEFDSSNARYPFSFDSVPYQVFINPKITKASKQRVSFWHGCLSALGEKRGKLATYKEIEYEAYNQHGEKITGKLDSIAAIIFQHEFNHLLGSVYVDFDTEYIDNEELQAKFASGELKPYQECGEEVPLLLEKYQIGKNI | not soluble
